For experiment [1], the target named is T1, PR1/HLA-A*0201 on the cell surface (human).
T1 construct: also called PR1-pulsed T2 cells; PR1/HLA-A2 on HLA-A2+ AML blasts
The experiment in a line: flow cytometry, 8F4 staining of MDA-MB-231 cells after 24 h with NE. A general note: Flow cytometry measures light scatter and fluorescence of single cells or particles in a stream.
Protocol: (§1) Mean 6 SEM fold increase of the MFI of PR1/HLA-A2 versus unpulsed cells is shown from duplicate experiments. ANOVA followed by Tukey test was performed using Prism 5.0 software (*p=0.01, **p, 0.0001).

The target of experiment [2] is T1, PR1/HLA-A*0201 on the cell surface. In words: flow cytometry, 8F4 staining of MDA-MB-231 cells after 24 h with P3.
Protocol: as §1
Experiment [3] concerns the target T2, recombinant PR1/HLA-A*0201 monomer (human).
T2 construct: Folded recombinant monomer; also called PR1/HLA-A2; PR-1/HLA-A2
The experiment in a line: SPR (Biacore), 8F4 immobilized/captured, soluble PR1/HLA-A*0201 as analyte. Background: In SPR one partner is held on a chip, and binding of the other changes the refractive index at the surface.

For experiment [4], the target named is T2, recombinant PR1/HLA-A*0201 monomer. The experiment in a line: SPR (BIAcore 3000), antibody captured on anti-mouse surface, peptide/HLA-A2 as analyte, 25 C; inset table, column KD (the text and the box under the plot round it to 9.9 nM).
Protocol: The test antibodies were captured onto anti-mouse antibody-coated surfaces. The analyte, peptide/HLA-A2, was diluted to 100 nM and tested in duplicate for binding to the antibody-coated surfaces. The analysis was performed at 25 C using PBS, 0.005% Tween-20, 0.1 mg/ml BSA, pH 7.4 as the running buffer.
The target is the same in experiment [5]. In words: ELISA, biotinylated PR1/HLA-A2 on streptavidin, anti-human kappa HRP.
Protocol: An ELISA plate was first coated with 100 μl/well of 5 μg/ml streptavidin (Jackson ImmunoResearch, West Grove, Pa.) in PBS. After washing wells with Wash Buffer (PBS containing 0.05% Tween 20) and blocking with Block Buffer, 50 μl/well of 2 μg/ml biotinylated PR1/HLA-A2, which had been provided by Dr. Molldrem, was added. After 30 min incubation at room temperature, the ELISA plate was washed with Wash Buffer. […] After incubating the ELISA plate for 1 hr at room temperature and washing with Wash Buffer, bound antibodies were detected using 100 μl/well of 1/2,000-diluted HRP-conjugated goat anti-human kappa chain polyclonal antibody. After incubating for 30 min at room temperature and washing with Wash Buffer, color development was performed by adding 100 μl/well of ABTS substrate. Color development was stopped by adding 100 μl/well of 2% oxalic acid. Absorbance was read at 405 nm.
Experiment [6] has the same target. The experiment in a line: ELISA on PR1/HLA-A2 monomer-coated plate, anti-human detection [panel B].
Description: (§2) The inventors used recombinant PR1/HLA-A2 monomer-coated plates to capture the antibody, and anti-human antibodies were used in a colorimetric assay to determine the bound fraction by optical density (OD).
The target is the same in experiment [7]. In words: ELISA on recombinant PR1/HLA-A2 monomer-coated plates; Hu8F4-2 (Hu2).
Description: as §2
For experiment [8] the target is unchanged. In words: ELISA on recombinant PR1/HLA-A2 monomer-coated plates; Hu8F4-1 (Hu1). On the technique in general: ELISA stands for enzyme-linked immunosorbent assay.
Description: as §2

B1: 8F4 mouse monoclonal antibody (IgG2a-kappa, anti-PR1/HLA-A*0201) (antibody, V domains shown)
VH: EVQLVESGGDLVKPGGSLKLSCAASGFTFSGYGMSWVRQTPDKRLEWVATISSGGSYTYYPDSVKGRFTISRDNAKNTLYLQMSSLKSEDTAMYYCARHEGGYYGSSPAWFVYWGQGTLVTLSA
VL: DIVMTQSHKFMSTSVGDRVSITCKASQDVSTAVAWYQQKPGQSPKLLIYSTSYRYTGVPDRFTGSGSGTVFTFTINSVQAEDLAVYYCQQHFITPPTFGGGTKLEIK
modifications: In the flow cytometry and confocal assays the antibody carried an Alexa Fluor 647 label; the letters do not carry it.
notes: Mouse IgG2a-kappa from hybridoma; Used with Alexa-647 label in flow cytometry and confocal assays; also called mouse 8F4; 8F4-4
Take B1: the “fold increase in PR1/HLA-A2 (8F4 MFI) versus unpulsed cells” value in experiment [1] was found to be 2.5 fold; in experiment [2], 3 fold. Further, the Kd in experiment [3] came out at 9.9 nM; in experiment [4], 9.85 nM.

B2: Ch8F4 chimeric 8F4 IgG1/kappa antibody (antibody, V domains shown)
VH: EVQLVESGGDLVKPGGSLKLSCAASGFTFSGYGMSWVRQTPDKRLEWVATISSGGSYTYYPDSVKGRFTISRDNAKNTLYLQMSSLKSEDTAMYYCARHEGGYYGSSPAWFVYWGQGTLVTLSA
VL: DIVMTQSHKFMSTSVGDRVSITCKASQDVSTAVAWYQQKPGQSPKLLIYSTSYRYTGVPDRFTGSGSGTVFTFTINSVQAEDLAVYYCQQHFITPPTFGGGTKLEIKR
notes: Mouse 8F4 VH/VL on human gamma-1 and kappa constant regions
In the case of B2, the EC50 in experiment [5] is 0.054 µg/mL. Also, in experiment [6], the “EC50 (read off the curve)” value was ~0.008 µg/mL.

B3: Hu8F4-2 humanized 8F4 IgG1/kappa antibody (Hu8F4 VH and VL2) (antibody)
heavy: not shown
light: DIQMTQSPSSLSASVGDRVTITCKASQDVSTAVAWYQQKPGKAPKLLIYSTSYRYTGVPSRFSGSGSGTDFTFTISSLQPEDIATYYCQQHFITPPTFGGGTKVEIKRTVAAPSVFIFPPSDEQLKSGTASVVCLLNNFYPREAKVQWKVDNALQSGNSQESVTEQDSKDSTYSLSSTLTLSKADYEKHKVYACEVTHQGLSSPVTKSFNRGEC
notes: VL2 has Asp instead of Val at position 70 of VL1; also called Hu2-8F4; Hu2
For the molecule B3, the Kd in experiment [7] worked out at 7.8 nM. For the same molecule, the EC50 in experiment [5] amounted to 0.07 µg/mL. Also, in experiment [6], the “EC50 (read off the curve)” value is ~0.008 µg/mL.

B4: Hu8F4-1 humanized 8F4 IgG1/kappa antibody (Hu8F4 VH and VL1) (antibody, V domains shown)
VH: EVQLVESGGGLVQPGGSLRLSCAASGFTFSGYGMSWVRQAPGKGLEWVATISSGGSYTYYPDSVKGRFTISRDNAKNSLYLQMNSLRAEDTAVYYCARHEGGYYGSSPAWFVYWGQGTMVTVSS
VL: DIQMTQSPSSLSASVGDRVTITCKASQDVSTAVAWYQQKPGKAPKLLIYSTSYRYTGVPSRFSGSGSGTVFTFTISSLQPEDIATYYCQQHFITPPTFGGGTKVEIKR
notes: Human IgG1/kappa; also called Hu1-8F4; Hu1
For B4, in experiment [8], the Kd was 7.7 nM. For the same molecule, in experiment [5], the EC50 is 0.05 µg/mL. The “EC50 (read off the curve)” value in experiment [6] was ~0.008 µg/mL.

B5: Hu8F4-2-AA humanized 8F4 IgG1-AA/kappa antibody (antibody)
heavy: not shown
light: DIQMTQSPSSLSASVGDRVTITCKASQDVSTAVAWYQQKPGKAPKLLIYSTSYRYTGVPSRFSGSGSGTDFTFTISSLQPEDIATYYCQQHFITPPTFGGGTKVEIKRTVAAPSVFIFPPSDEQLKSGTASVVCLLNNFYPREAKVQWKVDNALQSGNSQESVTEQDSKDSTYSLSSTLTLSKADYEKHKVYACEVTHQGLSSPVTKSFNRGEC
notes: Hu8F4 VH and VL2 on human IgG1 with Leu234Ala and Leu235Ala (Eu numbering); Signal peptide may be included
Take B5: the EC50 in experiment [5] was 0.07 µg/mL.

For orientation: Kd means the free concentration of one partner at which half of the binding sites on the other are occupied at equilibrium, for simple one-to-one binding. Broadly, the EC50 is the concentration needed to bring the measured effect to its halfway point. As a reminder, the EC50 (read off the curve) is the concentration needed to bring the measured effect to its halfway point.
